First the molecules themselves.
B1: LRRC45 (parent)
chain: FQTRQEMTSMSAELKMRAIQAEER
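Also: lentivirally expressed fusions sorted by FACS into six bins by GFP to DsRed ratio, PSI derived from sequencing read proportions per bin multiplied by bin number.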

The series covers variants of B1. Briefly: protein stability index of a GFP-peptide fusion (GPS, HEK-293T) (PSI 1-6); higher = more stable. The conditions noted are these: c terminus: a fixed tail appended.
Consider FQTKQEMTSMSAELKMRAIQAEER, for which the protein stability index came to 4.08.

Turning to FQTFQEMTSMSAELKMRAIQAEER, the protein stability index turned out to be 3.37.

Take FQTLQEMTSMSAELKMRAIQAEER: the protein stability index was 4.4.

Consider FQTNQEMTSMSAELKMRAIQAEER, for which the protein stability index was found to be 4.35.

For FQTAQEMTSMSAELKMRAIQAEER, the protein stability index was determined as 4.09.

For the variant FQTMQEMTSMSAELKMRAIQAEER, the protein stability index was 3.94.

Consider FQTTQEMTSMSAELKMRAIQAEER, for which the protein stability index is 4.46.

Regarding FQTEQEMTSMSAELKMRAIQAEER, the protein stability index was 4.95.

Turning to FQTHQEMTSMSAELKMRAIQAEER, the protein stability index turned out to be 3.66.

Regarding FQTYQEMTSMSAELKMRAIQAEER, the protein stability index was determined as 3.88.

For FQTPQEMTSMSAELKMRAIQAEER, the protein stability index turned out to be 4.62.

As to FQTVQEMTSMSAELKMRAIQAEER, the protein stability index turned out to be 3.77.

On to FQTSQEMTSMSAELKMRAIQAEER, for which the protein stability index amounted to 4.39.

In the case of FQTWQEMTSMSAELKMRAIQAEER, the protein stability index was found to be 2.48.

With FQTGQEMTSMSAELKMRAIQAEER, the protein stability index was determined as 4.34.

For the variant FQTQQEMTSMSAELKMRAIQAEER, the protein stability index turned out to be 4.14.

As for FQTIQEMTSMSAELKMRAIQAEER, the protein stability index turned out to be 4.09.

As to FQTDQEMTSMSAELKMRAIQAEER, the protein stability index is 4.99.

In the case of FQTCQEMTSMSAELKMRAIQAEER, the protein stability index was found to be 4.63.

With FQLRQEMTSMSAELKMRAIQAEER, the protein stability index was 3.76.

FQFRQEMTSMSAELKMRAIQAEER: the protein stability index was 3.95.

As to FQMRQEMTSMSAELKMRAIQAEER, the protein stability index worked out at 3.52.

As for FQIRQEMTSMSAELKMRAIQAEER, the protein stability index was 3.86.

Take FQKRQEMTSMSAELKMRAIQAEER: the protein stability index is 4.28.

FQGRQEMTSMSAELKMRAIQAEER: the protein stability index worked out at 3.72.

FQNRQEMTSMSAELKMRAIQAEER: the protein stability index was determined as 3.52.

Turning to FQCRQEMTSMSAELKMRAIQAEER, the protein stability index came to 3.02.

Regarding FQVRQEMTSMSAELKMRAIQAEER, the protein stability index was 3.43.

In the case of FQARQEMTSMSAELKMRAIQAEER, the protein stability index stood at 4.32.

FQERQEMTSMSAELKMRAIQAEER: the protein stability index came to 5.23.

As to FQSRQEMTSMSAELKMRAIQAEER, the protein stability index turned out to be 3.97.

For the variant FQQRQEMTSMSAELKMRAIQAEER, the protein stability index was determined as 3.83.

With FQPRQEMTSMSAELKMRAIQAEER, the protein stability index was 4.04.

Take FQDRQEMTSMSAELKMRAIQAEER: the protein stability index came out at 4.4.

As to FQWRQEMTSMSAELKMRAIQAEER, the protein stability index was found to be 2.06.

Turning to FQRRQEMTSMSAELKMRAIQAEER, the protein stability index amounted to 3.55.

FQYRQEMTSMSAELKMRAIQAEER: the protein stability index was found to be 3.22.

In the case of FQHRQEMTSMSAELKMRAIQAEER, the protein stability index amounted to 3.42.

As for FQTRGEMTSMSAELKMRAIQAEER, the protein stability index stood at 4.85.

As to FQTRYEMTSMSAELKMRAIQAEER, the protein stability index was 1.79.

Regarding FQTRWEMTSMSAELKMRAIQAEER, the protein stability index turned out to be 1.66.

Consider FQTRLEMTSMSAELKMRAIQAEER, for which the protein stability index is 3.77.

Consider FQTRFEMTSMSAELKMRAIQAEER, for which the protein stability index came out at 2.04.

As to FQTRMEMTSMSAELKMRAIQAEER, the protein stability index is 3.32.

As to FQTREEMTSMSAELKMRAIQAEER, the protein stability index was 4.31.

As to FQTRSEMTSMSAELKMRAIQAEER, the protein stability index was 3.97.

As to FQTRIEMTSMSAELKMRAIQAEER, the protein stability index was found to be 3.11.

Regarding FQTRVEMTSMSAELKMRAIQAEER, the protein stability index amounted to 3.97.

On to FQTRTEMTSMSAELKMRAIQAEER, for which the protein stability index is 3.65.

Regarding FQTRDEMTSMSAELKMRAIQAEER, the protein stability index is 4.71.

As for FQTRNEMTSMSAELKMRAIQAEER, the protein stability index was determined as 4.25.

On to FQTRPEMTSMSAELKMRAIQAEER, for which the protein stability index was 3.99.

FQTRAEMTSMSAELKMRAIQAEER: the protein stability index came to 3.83.

For FQTRREMTSMSAELKMRAIQAEER, the protein stability index is 3.7.

Regarding FQTRCEMTSMSAELKMRAIQAEER, the protein stability index amounted to 2.82.

Turning to FQTRKEMTSMSAELKMRAIQAEER, the protein stability index was determined as 4.08.

In the case of FQTRHEMTSMSAELKMRAIQAEER, the protein stability index was determined as 3.54.

Consider FQTRQEHTSMSAELKMRAIQAEER, for which the protein stability index is 4.28.

On to FQTRQEGTSMSAELKMRAIQAEER, for which the protein stability index is 3.93.

Regarding FQTRQEKTSMSAELKMRAIQAEER, the protein stability index is 4.02.

For FQTRQEDTSMSAELKMRAIQAEER, the protein stability index came out at 4.64.

As to FQTRQEITSMSAELKMRAIQAEER, the protein stability index was found to be 3.41.

Turning to FQTRQECTSMSAELKMRAIQAEER, the protein stability index turned out to be 3.6.

FQTRQEFTSMSAELKMRAIQAEER: the protein stability index came out at 3.

Regarding FQTRQEATSMSAELKMRAIQAEER, the protein stability index stood at 4.26.

As to FQTRQEETSMSAELKMRAIQAEER, the protein stability index came to 4.57.

For FQTRQFMTSMSAELKMRAIQAEER, the protein stability index was 2.27.

For the variant FQTRQTMTSMSAELKMRAIQAEER, the protein stability index was determined as 3.88.

Take FQTRQHMTSMSAELKMRAIQAEER: the protein stability index worked out at 3.02.

For FQTRQRMTSMSAELKMRAIQAEER, the protein stability index came out at 3.72.

Regarding FQTRQAMTSMSAELKMRAIQAEER, the protein stability index worked out at 3.42.

In the case of FQTRQNMTSMSAELKMRAIQAEER, the protein stability index amounted to 3.87.

On to FQTRQQMTSMSAELKMRAIQAEER, for which the protein stability index was 3.44.

Turning to FQTRQCMTSMSAELKMRAIQAEER, the protein stability index is 3.33.

For FQTRQLMTSMSAELKMRAIQAEER, the protein stability index was 3.03.

Consider FQTRQDMTSMSAELKMRAIQAEER, for which the protein stability index was 3.63.

For the variant FQTRQSMTSMSAELKMRAIQAEER, the protein stability index came to 4.01.

Turning to FQTRQMMTSMSAELKMRAIQAEER, the protein stability index stood at 3.36.

FQTRQPMTSMSAELKMRAIQAEER: the protein stability index came out at 2.78.

For the variant FQTRQVMTSMSAELKMRAIQAEER, the protein stability index amounted to 3.11.

For FQTRQGMTSMSAELKMRAIQAEER, the protein stability index came out at 3.48.

With FQTRQKMTSMSAELKMRAIQAEER, the protein stability index is 3.53.

Take FQTRQIMTSMSAELKMRAIQAEER: the protein stability index is 2.5.

Turning to FVTRQEMTSMSAELKMRAIQAEER, the protein stability index was 2.23.

Regarding FKTRQEMTSMSAELKMRAIQAEER, the protein stability index is 3.59.

With FSTRQEMTSMSAELKMRAIQAEER, the protein stability index turned out to be 4.85.

As to FPTRQEMTSMSAELKMRAIQAEER, the protein stability index came to 4.69.

FMTRQEMTSMSAELKMRAIQAEER: the protein stability index was found to be 4.3.

In the case of FLTRQEMTSMSAELKMRAIQAEER, the protein stability index turned out to be 3.76.

Consider FYTRQEMTSMSAELKMRAIQAEER, for which the protein stability index was 3.78.

On to FNTRQEMTSMSAELKMRAIQAEER, for which the protein stability index is 3.89.

As to FWTRQEMTSMSAELKMRAIQAEER, the protein stability index was 4.01.

As to FTTRQEMTSMSAELKMRAIQAEER, the protein stability index amounted to 3.92.

FRTRQEMTSMSAELKMRAIQAEER: the protein stability index was 4.18.

These data come from the supplement of paper PMC10567573.
